Among the data in US20210047412A1 are IC50 and Kd values, retold here.

First the molecules themselves.
B1: NAN10 (4B4) (VHH)
VHH: QVQLQASGGGLVQGGESLRLSCAASGRTVAEYTIGWYRQAPGKEREFVAGPSWHARGTSYLDSVKGRFTISRDNTKDTVYLQMNTLKPEDTAVYYCNADVNTDYSEYVEYWGQGTQVG
B2: NAN7/8 (5A5) (VHH)
VHH: QVQLQASGGGLVEPGGSLRLSCAASGAIFRIAAMGWYRQAPGKERELVATITRGGSTNYADSVKGRFTISRDNAKNTAYLQMDSLKAEDTGVYYCNAGLWATTSANYWGQGTQVG
B3: NAN4 (5A1) (VHH)
VHH: QVQLQASGGGLVQPGGSLTLSCAASGSIDSILAMGWYRQGPGKQREFVASISWSGDITYYADSAKGRFTISRDNAKNTVYLQMNSLKPEDTAVYYCNAGPDMQISGPTDDYDYWGQGTQVG
B4: NAN15 (4B2) (VHH)
VHH: QVQLQASGGGLVQPGEHLLLSCAASGFAFGIYTMGWYRQAPGKEREKVASISRTSDSWNYADSVKGRFTISRENAKNTLYLQMNSLKPEDTALYFCAKSRSAWNTDDIEYWGQGTQVG
B5: NAN6 (VHH)
VHH: QVQLQASGGGLVQPGGSLTLSCAASGSIDSILAMGWYRQGPGKQRELVATITSDGGSTNYAEYVKGRFTISRDDANNTACLQMDNLKPDDTAVYYCNAKGRRLSYGYWGQGTQVG
B6: NAN9 (VHH)
VHH: QVQLQASGGGLVQPGGSLRLSCATSGFTLDNLAIGWLRQAPGKEREGVSCISGSVGSTYYVDSVEGRFTISKDNAKNTVALQMDRLNPEDTAVYYCSAVGRERTHLPNWQYWGQGTQVG
B7: NAN27 (VHH)
VHH: QPQAFGGGLVQPGGSLRLSCVASGSTDSIYAMGWYRQAPGKQRELVATITSADSTNYADSVKGRFTISRDNAKNTVVLQMNSLKPEDTAVYYCNAGSLAGYDYWGQGTQVG
B8: NAN13/14 (VHH)
VHH: QVQLQASGGGLAQPGGSLRLSCAASGFTFSSYAMSWARQAPGKGLEWVSGIYSDGSGSYYADSVKGRFTISRDNAKNTLYLQMNSLKPEDTALYYCAKGSWSRGIKETDYWGQGTQVG
B9: NAN20 (VHH)
VHH: QVQLVQSGGEVKKPGASVKVSCKASGYTFTNYGITWARQAPGKGLEWVGGIYSDGSEPYYADSMKGRFTISRDNVKSTLYLQMNDLKPEDTALYFCAKGRGDFLKSAWRENRRYDSWGQGTQVG
B10: NAN22 (VHH)
VHH: QVQLQASGGGLVQPGGSLRLSCAASGSIFGLYAMGWYRQAPGKQRDLVAAIASGGSTNYADSVKGRFTISRDNAKNTVYLQMNSLKPEDTADYYCNVAGDVTAQNRCKHLEVWGQGTQVG

In one assay the target is canine PD-1 (canine). Description: competition ELISA, inhibition of canine PD-1 binding to canine PD-L1; competitor canine PD-L1 (Table 2). In general terms: In an ELISA, binding on a coated surface is turned into a signal by an enzyme label.
For B1, the IC50 (in general, the concentration at which inhibition is half-maximal) was determined as 5.04 nM.
Same read-out and setting: the figure for B2 is 6.83 nM; for B3 it is 8.25 nM.
B4 displayed an IC50 of 5 nM.

A further assay deals with canine PD-1 (canine). The assay is described as follows: competition ELISA, blockade of canine PD-1/PD-L1 binding; competitor canine PD-L1.
B1: the IC50 stood at 5.04 nM.
Still for that read-out and setting: then B2, with 6.83 nM; and B3, with 8.25 nM; and B4, with 5 nM.

Another assay addresses canine PD-1 (canine). Description: ELISA, affinity for canine PD-1 (Table 2).
For B1, the Kd (as a rule, the constant that tells how readily two partners part at equilibrium) worked out at 2.3 nM.
Still for that read-out and setting: the figure for B2 is 5.01 nM; for B3 it is 7 nM.
Same read-out and setting: then B4, with 2.51 nM.

In a further assay the target is canine PD-1 (canine). Description: ELISA; footnote: predicted affinity, not quantitatively measured.
In the case of B5, the Kd was greater than 10 nM.
On to B6, for which the equilibrium dissociation constant (Kd) is greater than 10 nM.
The same measure, in the same setting: the figure for B7 is greater than 10 nM.
For B8, the Kd was greater than 10 nM.
In the case of B9, the Kd was greater than 10 nM.
Same read-out and setting: the figure for B10 is greater than 10 nM.

The target of the next assay is canine PD-1 (canine). The assay is described as follows: ELISA on plate-bound tagged canine PD-1, Kd by the Bobrovnik method.
The molecule B1 registered a Kd of 2.3 nM.
Same read-out and setting: then B2, with 5.01 nM.
Molecule B3 returned a Kd of 7 nM.
B4 yielded a Kd of 2.51 nM.
